These results are taken from paper PMC10786891, “Massively parallel profiling of RNA-targeting CRISPR-Cas13d”.

Numbering of substitutions follows the chain as printed. Numbers in names are those of the source.

The Kd is the free concentration of one partner at which half of the binding sites on the other are occupied at equilibrium, for simple one-to-one binding.

The labels stand for the following.
T1: EsCas13d, nuclease-dead (Eubacterium siraeum, UniProt B0MS50, R295A;H300A;R849A;H854A)
T1 sequence: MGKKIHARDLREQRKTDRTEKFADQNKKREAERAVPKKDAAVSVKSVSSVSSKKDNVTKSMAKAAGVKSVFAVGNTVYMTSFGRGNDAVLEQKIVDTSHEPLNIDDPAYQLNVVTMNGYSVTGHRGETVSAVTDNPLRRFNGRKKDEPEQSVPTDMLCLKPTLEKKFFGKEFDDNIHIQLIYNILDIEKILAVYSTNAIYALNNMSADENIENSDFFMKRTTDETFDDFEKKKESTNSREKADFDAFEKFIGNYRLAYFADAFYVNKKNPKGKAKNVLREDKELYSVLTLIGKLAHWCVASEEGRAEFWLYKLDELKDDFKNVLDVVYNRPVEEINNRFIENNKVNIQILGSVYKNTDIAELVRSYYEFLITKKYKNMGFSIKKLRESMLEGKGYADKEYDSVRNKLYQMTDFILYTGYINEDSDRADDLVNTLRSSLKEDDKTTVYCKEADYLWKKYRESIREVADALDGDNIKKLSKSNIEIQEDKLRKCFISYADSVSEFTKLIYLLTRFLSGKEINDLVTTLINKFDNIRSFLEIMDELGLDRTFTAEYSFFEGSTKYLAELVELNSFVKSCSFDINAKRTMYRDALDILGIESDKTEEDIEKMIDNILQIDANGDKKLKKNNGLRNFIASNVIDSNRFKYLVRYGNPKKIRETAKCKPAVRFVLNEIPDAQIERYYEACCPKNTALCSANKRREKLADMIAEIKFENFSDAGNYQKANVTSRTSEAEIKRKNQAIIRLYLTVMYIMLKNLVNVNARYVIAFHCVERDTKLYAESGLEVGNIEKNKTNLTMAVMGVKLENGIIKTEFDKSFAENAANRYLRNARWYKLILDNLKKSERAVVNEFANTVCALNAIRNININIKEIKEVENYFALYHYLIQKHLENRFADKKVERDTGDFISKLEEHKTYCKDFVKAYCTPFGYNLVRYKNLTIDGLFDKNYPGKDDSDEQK

B1: target 1 U10A,U11C (mixed)
RNA 1: CACCCGUGCAAAAAUGCAGGGGUCUAAAACUGAGCGGAUAACCUCUCUAUGG
RNA 2: GGGAAUGGAUCCACAUCUACGAAUUCGUACCAUAGAGAGGCAAUCCGCUCACCGAGAUCGGAAGAGCACACGU
B2: target 1 C4U,C6A (mixed)
RNA 1: B1 RNA 1
RNA 2: B1 RNA 2 with C41U, A42U, C46A, C48U
B3: target 1 U19A,C22A (mixed)
RNA 1: B1 RNA 1
RNA 2: B1 RNA 2 with C30A, U33A, C41U, A42U
B4: target 1 G15A,A16U (mixed)
RNA 1: B1 RNA 1
RNA 2: B1 RNA 2 with A36U, G37A, C41U, A42U
B5: target 1 insU 3' of 22,insA 3' of 3 (mixed)
RNA 1: B1 RNA 1
RNA 2: GGGAAUGGAUCCACAUCUACGAAUUCGUACUCAUAGAGAGGUUAUCCGCUACACCGAGAUCGGAAGAGCACACGU
B6: target 1 insA 3' of 13,insA 3' of 2 (mixed)
RNA 1: B1 RNA 1
RNA 2: GGGAAUGGAUCCACAUCUACGAAUUCGUACCAUAGAGAGAGUUAUCCGCUCAACCGAGAUCGGAAGAGCACACGU
B7: target 1 insG 3' of 8,insC 3' of 5 (mixed)
RNA 1: B1 RNA 1
RNA 2: B6 RNA 2 with A40G, G41U, U43A, A44U, U45G, U50C, C51U, A52C
B8: target 1 insA 3' of 19,insG 3' of 2 (mixed)
RNA 1: B1 RNA 1
RNA 2: B5 RNA 2 with U31C, C32A, A33U, U34A, A51C, C52G
B9: target 1 U8G (mixed)
RNA 1: B1 RNA 1
RNA 2: B1 RNA 2 with C41U, A42U, U44G
B10: target 1 G17U,C22U (mixed)
RNA 1: B1 RNA 1
RNA 2: B1 RNA 2 with C30U, G35U, C41U, A42U
B11: target 1 A1U,U8G (mixed)
RNA 1: B1 RNA 1
RNA 2: B1 RNA 2 with C41U, A42U, U44G, A51U
B12: target 1 U10C,G13A (mixed)
RNA 1: B1 RNA 1
RNA 2: B1 RNA 2 with G39A, C41U, A42C
B13: target 1 insC 3' of 19,insA 3' of 10 (mixed)
RNA 1: B1 RNA 1
RNA 2: GGGAAUGGAUCCACAUCUACGAAUUCGUACCAUCAGAGAGGUUAAUCCGCUCACCGAGAUCGGAAGAGCACACGU
B14: target 1 insG 3' of 22,insC 3' of 20 (mixed)
RNA 1: B1 RNA 1
RNA 2: GGGAAUGGAUCCACAUCUACGAAUUCGUACGCACUAGAGAGGUUAUCCGCUCACCGAGAUCGGAAGAGCACACGU
B15: target 1 C4G,U10G (mixed)
RNA 1: B1 RNA 1
RNA 2: B1 RNA 2 with C41U, A42G, C48G
B16: target 1 insG 3' of 9,insA 3' of 2 (mixed)
RNA 1: B1 RNA 1
RNA 2: B6 RNA 2 with A40G, G41U, U43A, A44G
B17: target 1 insU 3' of 13,insA 3' of 5 (mixed)
RNA 1: B1 RNA 1
RNA 2: B6 RNA 2 with A40U, C49A, U50C, C51U, A52C
B18: target 1 insU 3' of 22,insU 3' of 22 (mixed)
RNA 1: B1 RNA 1
RNA 2: B14 RNA 2 with G31U, C32U, A33C, C34A
B19: target 1 insC 3' of 10,insG 3' of 3 (mixed)
RNA 1: B1 RNA 1
RNA 2: B6 RNA 2 with A40G, G41U, U43C, C51G, A52C
B20: target 1 insG 3' of 22,insU 3' of 18 (mixed)
RNA 1: B1 RNA 1
RNA 2: B14 RNA 2 with C34U, U35A, A36U
B21: target 1 insC 3' of 15,insU 3' of 5 (mixed)
RNA 1: B1 RNA 1
RNA 2: B6 RNA 2 with A38C, G39A, A40G, C49U, U50C, C51U, A52C
B22: target 1 U3C,A9G (mixed)
RNA 1: B1 RNA 1
RNA 2: B1 RNA 2 with C41U, A42U, A43G, U49C
B23: target 1 A16G,G17C (mixed)
RNA 1: B1 RNA 1
RNA 2: B1 RNA 2 with G35C, A36G, C41U, A42U
B24: target 1 U3C,U10A (mixed)
RNA 1: B1 RNA 1
RNA 2: B1 RNA 2 with C41U, U49C
B25: target 1 U3A,A14G (mixed)
RNA 1: B1 RNA 1
RNA 2: B1 RNA 2 with A38G, C41U, A42U, U49A
B26: target 1 U3A,A9U (mixed)
RNA 1: B1 RNA 1
RNA 2: B1 RNA 2 with C41U, A42U, A43U, U49A
B27: target 1 insU 3' of 13,insA 3' of 12 (mixed)
RNA 1: B1 RNA 1
RNA 2: B14 RNA 2 with G31C, C32A, A33U, C34A, U35G, A40U, G42A
B28: target 1 C7G,G12U (mixed)
RNA 1: B1 RNA 1
RNA 2: B1 RNA 2 with G40U, C41U, A42U, C45G
B29: target 1 insU 3' of 7,insU 3' of 1 (mixed)
RNA 1: B1 RNA 1
RNA 2: B6 RNA 2 with A40G, G41U, U43A, A44U, U45C, C46U, A53U
B30: target 1 insC 3' of 11,insU 3' of 4 (mixed)
RNA 1: B1 RNA 1
RNA 2: B6 RNA 2 with A40G, G41U, U42C, C51U, A52C
B31: target 1 G12U,G17A (mixed)
RNA 1: B1 RNA 1
RNA 2: B1 RNA 2 with G35A, G40U, C41U, A42U
B32: target 1 del14,del20 (mixed)
RNA 1: B1 RNA 1
RNA 2: GGGAAUGGAUCCACAUCUACGAAUUCGUACCUAGAGGGUUAUCCGCUCACCGAGAUCGGAAGAGCACACGU
B33: target 1 C2U,G5C (mixed)
RNA 1: B1 RNA 1
RNA 2: B1 RNA 2 with C41U, A42U, G47C, C50U

This data set deals with T1, EsCas13d, nuclease-dead. In words: crRNA (strand 1, pre-loaded); Mg2+; 40 mM Tris-HCl pH 7.5, 150 mM NaCl, 6 mM MgCl2, 1 mM DTT, 0.1% Tween-20, 0.2 mg/ml BSA; 25 C; 10 min per concentration, then washed. As to conditions: tags: His6-TwinStrep-SUMO cleaved; N-terminal SNAP kept (SNAP-Surface 488); label: 3' end held by stalled T7 RNA polymerase.
B1 registered a Kd of 9.96 ± 0.33 nM.

B2: the dissociation constant (Kd) worked out at 7.52 ± 0.33 nM.

B3 registered a Kd of 56 ± 7 nM.

On to B4, for which the Kd worked out at 24.3 ± 2.3 nM. Against the preceding molecule, the Kd is about 2.3-fold lower.

For the molecule B5, the Kd amounted to 31.5 ± 2.8 nM.

Molecule B6 registered a Kd of 3.1 ± 0.28 nM.

Take B7: the affinity, expressed as Kd, was 10.2 ± 0.4 nM.

B8 yielded a Kd of 19.5 ± 1.3 nM.

In the case of B9, the Kd was found to be 19.2 ± 0.9 nM.

For the molecule B10, binding was put at a Kd of 32.4 ± 2.8 nM.

The molecule B11 had a Kd of 24.6 ± 1 nM.

In turn, B12 returned a Kd of 13.6 ± 1 nM.

B13 came in with a Kd of 57 ± 5 nM.

B14 registered a dissociation constant (Kd) of 8.4 ± 0.7 nM.

B15 had a Kd of 13.6 ± 0.5 nM.

Molecule B16 yielded a Kd of 21.2 ± 2.5 nM.

In the case of B17, the Kd worked out at 15.7 ± 2.7 nM.

B18 had a Kd of 31 ± 8 nM.

Consider B19, for which the Kd was found to be 9.5 ± 0.5 nM. Against the preceding molecule, the Kd is about 3.3-fold lower.

Regarding B20, binding was characterised by a dissociation constant (Kd) of 74 ± 18 nM.

B21 yielded a Kd of 16.6 ± 1.8 nM.

The molecule B22 gave a Kd of 30.5 ± 3.2 nM.

Molecule B23 registered a Kd of 76 ± 10 nM. This Kd is about 2.5-fold higher than that of the molecule before.

Molecule B24 yielded a Kd of 90 ± 40 nM.

With B25, the Kd was found to be 14.3 ± 1.2 nM.

Take B26: the Kd is 10.8 ± 0.9 nM. The Kd values of the last two molecules are within 1.5-fold of each other.

B27 showed a Kd of 10.1 ± 0.7 nM.

B28 had a Kd of 14.3 ± 1.1 nM.

The molecule B29 gave a Kd of 18.4 ± 0.9 nM. The Kd values of the last two molecules are within 1.5-fold of each other.

The molecule B30 displayed a Kd of 23.2 ± 1.8 nM.

The molecule B31 showed a Kd of 59 ± 8 nM.

B32 yielded a Kd of 72 ± 25 nM.

For B33, binding was characterised by a dissociation constant (Kd) of 12.4 ± 0.8 nM.
